# Experimental data reported in US20230391832A1, “CO[…]-BINDING POLYPEPTIDES AND METHODS OF USING THE SAME” (Isolere Bio, Inc., priority 2022, published 2023).
# Assays:
# [1] = system: AAV full capsids vs AAV empty capsids; details: cited from earlier work
# AAV9 full capsids = experiment: pH dependence of binding by ELISA (acidic vs neutral elution); details: purified polypeptide 1 μM; citric acid pH 3, 4 or 5 vs TBS pH 7.2; FIG. 4
# Method: The pH dependence of binding of the polypeptides of Table C was evaluated by ELISA. Initially, the bacterial lysates of cultures expressing the polypeptides of Table C were incubated in a citric acid solution (pH 4.0) containing AAV9 capsids for 30 minutes. Subsequently, the solution was washed in Tris-Buffered Saline (TBS), which contained 0.05% TWEEN® 20, at neutral pH.
# The five polypeptides were expressed and purified via a C-terminal 6X-His tag. The purified polypeptides (1 μM) were incubated with an ELISA plate that was coated with AAV9 full capsids. The polypeptides were eluted from the ELISA plate with a citric acid solution at pH 3, 4, or 5 (acidic elution) or in the TBS solution described above at pH 7.2 (neutral elution). The ELISA signal from the protein that was still bound to the AAV9 capsid was measured. The post elution % ligand remaining bound to AAV9 was calculated by dividing the signal after pH 3, 4, or 5 incubation by the signal after pH 7.2 incubation, and multiplying by 100.
# AAV8 capsids = experiment: ELISA cross-reactivity, AAV8 (FIG. 3C); format: binding
# Description: (§1) The control sequence (i.e. the human polycystic kidney domain 2, which is known to bind to AAV9 capsids) is labeled “C” in each graph.
# (§2) Seven of the variants of Table C were screened for cross-reactivity to AAV2, AAV5, and AAV8.
# AAV2 capsids = experiment: ELISA cross-reactivity, AAV2 (FIG. 3A); format: binding
# Description: as §1, §2
# AAV9 capsids = details: cited from earlier work
# AAV5 capsids = experiment: ELISA cross-reactivity, AAV5 (FIG. 3B); format: binding
# Description: as §1, §2
molecule,measurement,setting,value
"PKD2 control protein: N-terminal His-tagged polycystic kidney domain 2 (PKD2 domain) from the AAV receptor, known to bind AAV9 capsids (protein, left off: small tags and cut ends) IAIVSPQFQEISLPTTSTVIDGSQSTDDDKIVQYHWEELKGPLREEKISEDTAILKLSKLVPGNYTFSLTVVDSDGATNSTTANLTVNKA",discrimination between full and empty capsids (known),[1],no discrimination between full and empty capsids
same,AAV9 binding signal after acidic elution compared to neutral elution,AAV9 full capsids,reduced AAV9 binding signal
same,binding / cross-reactivity to AAV8,AAV8 capsids,bound poorly or very weakly
same,binding / cross-reactivity to AAV2,AAV2 capsids,cross reacted strongly
same,affinity to AAV9 capsids (known),AAV9 capsids,known affinity to AAV9 capsids
same,binding / cross-reactivity to AAV5,AAV5 capsids,bound poorly or very weakly
